# According to IntAct's records for PubMed 10835346:
# B1: Dolichol phosphate-mannose biosynthesis regulatory protein (Rattus norvegicus (Rat)), Q9Z325 (parent)
# chain: MATGTDQAVGFGLVAVSLIIFTYYTTWVILLPFIDSQHVIHKYFLPRAYAVLLPLAAGLLLLLFVGLFITYVLLKSQKVTKKAQ
# partner: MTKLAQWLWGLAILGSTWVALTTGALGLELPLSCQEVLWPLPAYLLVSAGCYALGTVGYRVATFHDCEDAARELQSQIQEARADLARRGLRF
# Variants of: B1
# Conditions: with dpm3_human DPM3, Q9P2X0
row,effect of a mutation on the interaction,Variant
1,decreasing interaction,F21L;Y23S
